Patent US20220018856A1

Legend:
[1] = target: phosphorylated tau peptide antigen in which threonine at position 181 in tau protein had been phosphorylated; assay: sandwich CLEIA, AT270 capture; count at 4.5 pM over count at 0 pM
[2] = target: phosphorylated tau peptide antigen in which threonine at position 181 in tau protein had been phosphorylated; assay: sandwich CLEIA (Lumipulse G), capture on AT270 magnetic particles; antigen 9 pM
[3] = target: phosphorylated tau peptide antigen in which threonine at position 181 in tau protein had been phosphorylated; assay: sandwich CLEIA (Lumipulse G), capture on AT270 magnetic particles; antigen 18 pM
[4] = target: phosphorylated tau peptide antigen in which threonine at position 181 in tau protein had been phosphorylated; assay: sandwich CLEIA (Lumipulse G), capture on AT270 magnetic particles; antigen 36 pM
[5] = target: phosphorylated tau peptide antigen in which threonine at position 181 in tau protein had been phosphorylated; assay: sandwich CLEIA (Lumipulse G), capture on AT270 magnetic particles; antigen 72 pM
[6] = target: phosphorylated tau peptide antigen in which threonine at position 181 in tau protein had been phosphorylated; assay: sandwich CLEIA (Lumipulse G), capture on AT270 magnetic particles; antigen 150 pM
[7] = target: phosphorylated tau peptide antigen in which threonine at position 181 in tau protein had been phosphorylated; assay: sandwich CLEIA (Lumipulse G), capture on AT270 magnetic particles; antigen 4.5 pM
[8] = target: tau protein of the calibrator reagent for measuring total tau protein (LUMIPULSE G Total Tau Calibrators set, Fujirebio) (UniProt P10636); assay: sandwich CLEIA, AT120 capture; calculated count at 600 pg/mL over count at 0 pg/mL
[9] = target: phosphorylated tau peptide antigen in which threonine at position 181 in tau protein had been phosphorylated; assay: sandwich CLEIA (Lumipulse G), capture on AT270 magnetic particles; antigen 0 pM (blank)
[10] = target: tau protein of the calibrator reagent for measuring total tau protein (LUMIPULSE G Total Tau Calibrators set, Fujirebio) (UniProt P10636); assay: sandwich CLEIA, AT120 capture; S/N (600/0 pg/mL) against BT2-bio + HT7-bio with SA-ALP
[11] = target: tau protein in samples obtained by diluting a cerebrospinal fluid specimen with buffer (UniProt P10636); assay: one-step sandwich CLEIA, AT120 capture; diluted cerebrospinal fluid sample LoB, mean of n=10
[12] = target: tau protein in samples obtained by diluting a cerebrospinal fluid specimen with buffer (UniProt P10636); assay: one-step sandwich CLEIA, AT120 capture; diluted cerebrospinal fluid sample LoQ 1, mean of n=10
[13] = target: tau protein in samples obtained by diluting a cerebrospinal fluid specimen with buffer (UniProt P10636); assay: one-step sandwich CLEIA, AT120 capture; diluted cerebrospinal fluid sample LoQ 2, mean of n=10
[14] = target: tau protein in samples obtained by diluting a cerebrospinal fluid specimen with buffer (UniProt P10636); assay: one-step sandwich CLEIA, AT120 capture; diluted cerebrospinal fluid sample LoQ 3, mean of n=10
[15] = target: tau protein in samples obtained by diluting a cerebrospinal fluid specimen with buffer (UniProt P10636); assay: one-step sandwich CLEIA, AT120 capture; diluted cerebrospinal fluid sample LoQ 4, mean of n=10
[16] = target: tau protein in samples obtained by diluting a cerebrospinal fluid specimen with buffer (UniProt P10636); assay: one-step sandwich CLEIA, AT120 capture; diluted cerebrospinal fluid sample LoQ 5, mean of n=10
[17] = target: tau protein of the calibrator reagent for measuring total tau protein (LUMIPULSE G Total Tau Calibrators set, Fujirebio) (UniProt P10636); assay: one-step sandwich CLEIA (Lumipulse G), capture on AT120 magnetic particles; calibrator 101 pg/mL
[18] = target: tau protein of the calibrator reagent for measuring total tau protein (LUMIPULSE G Total Tau Calibrators set, Fujirebio) (UniProt P10636); assay: one-step sandwich CLEIA (Lumipulse G), capture on AT120 magnetic particles; calibrator 213 pg/mL
[19] = target: tau protein of the calibrator reagent for measuring total tau protein (LUMIPULSE G Total Tau Calibrators set, Fujirebio) (UniProt P10636); assay: one-step sandwich CLEIA (Lumipulse G), capture on AT120 magnetic particles; calibrator 667 pg/mL
[20] = target: tau protein of the calibrator reagent for measuring total tau protein (LUMIPULSE G Total Tau Calibrators set, Fujirebio) (UniProt P10636); assay: one-step sandwich CLEIA (Lumipulse G), capture on AT120 magnetic particles; calibrator 1037 pg/mL
[21] = target: tau protein of the calibrator reagent for measuring total tau protein (LUMIPULSE G Total Tau Calibrators set, Fujirebio) (UniProt P10636); assay: one-step sandwich CLEIA (Lumipulse G), capture on AT120 magnetic particles; calibrator 2639 pg/mL
[22] = target: phosphorylated tau peptide antigen in which threonine at position 181 in tau protein had been phosphorylated; assay: sandwich CLEIA, AT270 capture; S/N (4.5 pM/0 pM) against the ALP-labeled single antibody mixtures
[23] = target: tau protein of the calibrator reagent for measuring total tau protein (LUMIPULSE G Total Tau Calibrators set, Fujirebio) (UniProt P10636); assay: one-step sandwich CLEIA (Lumipulse G), capture on AT120 magnetic particles; calibrator 0 pg/mL (blank)
[24] = target: tau protein of the calibrator reagent for measuring total tau protein (LUMIPULSE G Total Tau Calibrators set, Fujirebio) (UniProt P10636); assay: sandwich CLEIA, capture on AT120 magnetic particles, SA-ALP detection; calibrator 60 pg/mL
[25] = target: tau protein of the calibrator reagent for measuring total tau protein (LUMIPULSE G Total Tau Calibrators set, Fujirebio) (UniProt P10636); assay: sandwich CLEIA, capture on AT120 magnetic particles, SA-ALP detection; calibrator 150 pg/mL
[26] = target: tau protein of the calibrator reagent for measuring total tau protein (LUMIPULSE G Total Tau Calibrators set, Fujirebio) (UniProt P10636); assay: sandwich CLEIA, capture on AT120 magnetic particles, SA-ALP detection; calibrator 420 pg/mL
[27] = target: tau protein of the calibrator reagent for measuring total tau protein (LUMIPULSE G Total Tau Calibrators set, Fujirebio) (UniProt P10636); assay: sandwich CLEIA, capture on AT120 magnetic particles, SA-ALP detection; calibrator 900 pg/mL
[28] = target: tau protein of the calibrator reagent for measuring total tau protein (LUMIPULSE G Total Tau Calibrators set, Fujirebio) (UniProt P10636); assay: sandwich CLEIA, capture on AT120 magnetic particles, SA-ALP detection; calibrator 2250 pg/mL
[29] = target: tau protein of the calibrator reagent for measuring total tau protein (LUMIPULSE G Total Tau Calibrators set, Fujirebio) (UniProt P10636); assay: sandwich CLEIA, capture on AT120 magnetic particles, SA-ALP detection; calibrator 0 pg/mL (blank)
[30] = target: tau protein of the calibrator reagent for measuring total tau protein (LUMIPULSE G Total Tau Calibrators set, Fujirebio) (UniProt P10636); assay: sandwich CLEIA, AT120 capture, SA-ALP detection; calculated count at 600 pg/mL over count at 0 pg/mL
[31] = target: tau protein in samples obtained by diluting a cerebrospinal fluid specimen with buffer (UniProt P10636); assay: sandwich CLEIA, AT120 capture, SA-ALP detection; diluted cerebrospinal fluid sample LoB, mean of n=10
[32] = target: tau protein in samples obtained by diluting a cerebrospinal fluid specimen with buffer (UniProt P10636); assay: sandwich CLEIA, AT120 capture, SA-ALP detection; diluted cerebrospinal fluid sample LoQ 1, mean of n=10
[33] = target: tau protein in samples obtained by diluting a cerebrospinal fluid specimen with buffer (UniProt P10636); assay: sandwich CLEIA, AT120 capture, SA-ALP detection; diluted cerebrospinal fluid sample LoQ 2, mean of n=10
[34] = target: tau protein in samples obtained by diluting a cerebrospinal fluid specimen with buffer (UniProt P10636); assay: sandwich CLEIA, AT120 capture, SA-ALP detection; diluted cerebrospinal fluid sample LoQ 3, mean of n=10
[35] = target: tau protein in samples obtained by diluting a cerebrospinal fluid specimen with buffer (UniProt P10636); assay: sandwich CLEIA, AT120 capture, SA-ALP detection; diluted cerebrospinal fluid sample LoQ 4, mean of n=10
[36] = target: tau protein in samples obtained by diluting a cerebrospinal fluid specimen with buffer (UniProt P10636); assay: sandwich CLEIA, AT120 capture, SA-ALP detection; diluted cerebrospinal fluid sample LoQ 5, mean of n=10
[37] = target: phosphorylated tau peptide antigen in which threonine at position 181 in tau protein had been phosphorylated; assay: sandwich CLEIA, AT270 capture; count at 40 pg/mL over count at 0 pg/mL
[38] = target: phosphorylated tau peptide antigen in which threonine at position 181 in tau protein had been phosphorylated; assay: sandwich CLEIA (Lumipulse G), capture on AT270 magnetic particles, ALP-SA label; antigen 40 pg/mL
[39] = target: phosphorylated tau peptide antigen in which threonine at position 181 in tau protein had been phosphorylated; assay: sandwich CLEIA (Lumipulse G), capture on AT270 magnetic particles, ALP-SA label; antigen 100 pg/mL
[40] = target: phosphorylated tau peptide antigen in which threonine at position 181 in tau protein had been phosphorylated; assay: sandwich CLEIA (Lumipulse G), capture on AT270 magnetic particles, ALP-SA label; antigen 200 pg/mL
[41] = target: phosphorylated tau peptide antigen in which threonine at position 181 in tau protein had been phosphorylated; assay: sandwich CLEIA (Lumipulse G), capture on AT270 magnetic particles, ALP-SA label; antigen 400 pg/mL
[42] = target: phosphorylated tau peptide antigen in which threonine at position 181 in tau protein had been phosphorylated; assay: sandwich CLEIA, AT270 capture; S/N (40/0 pg/mL) against the mixture of ALP-labeled single antibodies
[43] = target: phosphorylated tau peptide antigen in which threonine at position 181 in tau protein had been phosphorylated; assay: sandwich CLEIA (Lumipulse G), capture on AT270 magnetic particles, ALP-SA label; antigen 0 pg/mL (blank)

Q: What does the source list for “hybrid conjugate labeled with alkaline phosphatase (BT2 Fab′ fragment and HT7 Fab′ fragment coupled to maleimidated ALP)”?
A: S/N (4.5/0) [1]: 71.7; Count value [2]: 73800 count; Count value [3]: 153000 count; Count value [4]: 297000 count; Count value [5]: 576000 count; Count value [6]: 1.35e+06 count; Count value [7]: 42600 count; S/N (600/0) [8]: 60.6; Count value [9]: 595 count; S/N ratio against the mixture of the labeled antibodies [10]: 6 fold; Count value [11]: 728 count; Count value [12]: 982 count; Count value [13]: 1160 count; Count value [14]: 1600 count; Count value [15]: 1970 count; Count value [16]: 2380 count; Count value [17]: 9280 count; Count value [18]: 17600 count; Count value [19]: 50400 count; Count value [20]: 83600 count; Count value [21]: 211000 count; S/N ratio against the ALP-labeled Fab′ fragment mixture [22]: 6 fold; Count value [23]: 744 count

Q: Which results are given for “antibody mixture of biotinylated monoclonal antibody BT2 and biotinylated monoclonal antibody HT7, detected with streptavidin-labeled ALP”?
A: Count value [24]: 514 count; Count value [25]: 817 count; Count value [26]: 2670 count; Count value [27]: 7070 count; Count value [28]: 38100 count; Count value [29]: 409 count; S/N (600/0) [30]: 10; Count value [31]: 408 count; Count value [32]: 455 count; Count value [33]: 585 count; Count value [34]: 641 count; Count value [35]: 694 count; Count value [36]: 858 count

Q: Which results are given for “BSA linker hybrid conjugate 1 labeled with ALP (BT2 Fab′ and HT7 Fab′ on maleimidated BSA, biotinylated, with streptavidin-conjugated alkaline phosphatase) (from UniProt P02769 25-607)”?
A: S/N (40/0) [37]: 10; Count value [38]: 3110 count; Count value [39]: 7390 count; Count value [40]: 14400 count; Count value [41]: 28700 count; S/N ratio against the mixed conjugate reaction solution [42]: 9 fold; Count value [43]: 312 count

Q: With “BSA linker hybrid conjugate 2 labeled with ALP (BT2 Fab′ and HT7 Fab′ on biotinylated and maleimidated thiolated BSA, with streptavidin-conjugated alkaline phosphatase) (from UniProt P02769 25-607)” as the substance, how does the S/N (40/0) [37] read?
A: 14.3

Q: What about the Count value [38] of the same substance?
A: 3970 count

Q: What about the Count value [39] of the same substance?
A: 10100 count

Q: What about the Count value [40] of the same substance?
A: 19300 count

Q: What about the Count value [41] of the same substance?
A: 37300 count

Q: And the S/N ratio against the mixed conjugate reaction solution [42]?
A: 13 fold

Q: And the Count value [43]?
A: 278 count
